Test results taken from patent US20240352144A1 (UNIVERSIT TSKLINIKUM HAMBURG EPPENDORF, published 2024).

T1: human CD39 (gene ID 953) (human, UniProt P49961 5-510)
T1 construct: Cell-surface form: transiently or stably transfected HEK cells, PBMCs, AML cell lines; also called native CD39; human CD39 transfected HEK cells
T1 sequence: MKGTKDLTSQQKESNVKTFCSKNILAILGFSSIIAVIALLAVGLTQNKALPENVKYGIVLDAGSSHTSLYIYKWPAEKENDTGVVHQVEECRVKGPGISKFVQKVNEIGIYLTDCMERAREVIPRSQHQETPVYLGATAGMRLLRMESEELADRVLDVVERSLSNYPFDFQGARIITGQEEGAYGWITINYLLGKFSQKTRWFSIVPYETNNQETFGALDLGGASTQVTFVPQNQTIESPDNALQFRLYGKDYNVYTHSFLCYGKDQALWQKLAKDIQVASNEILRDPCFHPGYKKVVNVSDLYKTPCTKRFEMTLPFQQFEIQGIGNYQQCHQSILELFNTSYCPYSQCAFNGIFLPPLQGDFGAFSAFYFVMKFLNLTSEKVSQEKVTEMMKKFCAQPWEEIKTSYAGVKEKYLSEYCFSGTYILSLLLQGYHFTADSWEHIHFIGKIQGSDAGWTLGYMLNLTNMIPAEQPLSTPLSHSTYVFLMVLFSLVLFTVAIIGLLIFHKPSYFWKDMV

T2: mouse CD39 (gene ID 12495) (mouse, UniProt P55772 1-510)
T2 construct: whole, on cells; also called murine CD39; mouse CD39 transfected HEK cells
T2 sequence (looked up): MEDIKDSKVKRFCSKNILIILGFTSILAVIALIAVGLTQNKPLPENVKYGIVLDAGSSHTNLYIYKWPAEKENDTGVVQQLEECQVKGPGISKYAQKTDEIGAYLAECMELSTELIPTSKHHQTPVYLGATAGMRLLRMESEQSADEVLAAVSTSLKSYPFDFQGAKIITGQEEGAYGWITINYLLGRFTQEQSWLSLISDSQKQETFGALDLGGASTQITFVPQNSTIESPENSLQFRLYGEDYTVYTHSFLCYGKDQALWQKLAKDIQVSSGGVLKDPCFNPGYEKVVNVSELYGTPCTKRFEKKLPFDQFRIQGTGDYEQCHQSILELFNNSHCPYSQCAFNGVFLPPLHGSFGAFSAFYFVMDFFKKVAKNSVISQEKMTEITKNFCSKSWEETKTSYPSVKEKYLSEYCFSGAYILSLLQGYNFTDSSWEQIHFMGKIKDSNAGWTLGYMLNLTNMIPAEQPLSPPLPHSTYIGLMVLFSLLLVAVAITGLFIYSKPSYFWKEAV


Key:
human CD39 (gene ID 953) [1] = target: T1, human CD39 (gene ID 953); assay: flow cytometry binning on human CD39-expressing cells; competitor: Fam. 3 human IgG hcAb (SB134) in excess
human CD39 (gene ID 953) [2] = target: T1, human CD39 (gene ID 953); assay: flow cytometry binning on human CD39-expressing cells; competitor: human IgG hcAb SB24 (Fam. 1) in excess
human CD39 (gene ID 953) [3] = target: T1, human CD39 (gene ID 953); assay: flow cytometry binning on human CD39-expressing cells; competitor: Fam. 2 human IgG hcAb in excess
human CD39 (gene ID 953) [4] = target: T1, human CD39 (gene ID 953); assay: flow cytometry binning on human CD39-expressing cells; competitor: Fam. 5 human IgG hcAb (SB136) in excess
human CD39 (gene ID 953) [5] = target: T1, human CD39 (gene ID 953); assay: flow cytometry, rabbit IgG hcAb supernatant on transfected HEK cells
[6] = target: recombinant human CD39 ectodomain with C-terminal His6x tag (human) (UniProt P49961); assay: BLI (Octet RED96), rabbit IgG hcAb on protein A biosensor, recombinant CD39 ectodomain as analyte at 200 ng/µl
[7] = target: T2, mouse CD39 (gene ID 12495); assay: Table 1 specificity; sorted by binding to human (h) and/or mouse (m) CD39
[8] = target: recombinant human CD39 ectodomain with C-terminal His6x tag (human) (UniProt P49961); assay: BLI (Octet RED96), rabbit IgG hcAb on protein A biosensor, recombinant CD39 ectodomain as analyte
[9] = target: T2, mouse CD39 (gene ID 12495); assay: Table 1 specificity; binding to human (h) and/or mouse (m) CD39
human CD39 (gene ID 953) [10] = target: T1, human CD39 (gene ID 953); assay: as above

Row | Molecule | percent inhibition of binding (human CD39 (gene ID 953) [1]) [%] | percent inhibition of binding (human CD39 (gene ID 953) [2]) [%] | percent inhibition of binding (human CD39 (gene ID 953) [3]) [%] | percent inhibition of binding (human CD39 (gene ID 953) [4]) [%] | binding result (human CD39 (gene ID 953) [5]) | koff [6] [s⁻¹] | binding result [7] | koff [8] [s⁻¹] | binding result [9] | binding result (human CD39 (gene ID 953) [10])
1 | monoclonal antibody against CD39, clone eBioA1 | 5 | 17 | 8 | 75 |  |  |  |  |  | 
2 | SB126 rabbit IgG hcAb (Fc fusion, not shown: a dimerising Fc or GST, also called family 2) VHH: QVQLVESGGGLVQAGDSLRLSCAASGRIPVTTTTAWFRQAPGKEREFVAAIRWNSGDAAYADSAKGRFTISRDSAKNTLYLQMNNLEPEDTAVYYCAAKYSRYAPQSTDYDYWGQGTQVTVSS |  |  |  |  | binds | 0.048 |  |  |  | 
3 | SB127 rabbit IgG hcAb (Fc fusion, not shown: a dimerising Fc or GST, also called family 2) VHH: QVQLVESGGGLVQAGDSLRLSCAASGRIPVTTTTAWFRQAPGKEREFVAAITWNSGNTNYADSAKGRFTISRDSAKNTLYLQMNNLKPEDTAVYYCAAKYSRYNLQSTDYDYWGQGTQVTVSS |  |  |  |  | binds | 0.028 |  |  |  | 
4 | SB128 rabbit IgG hcAb (Fc fusion, not shown: a dimerising Fc or GST, also called l- 14b; family 2) VHH: QVQLVESGGGLVQAGDSLRLSCAASGRTPITTTTGWFRQAPGKEREFVAAIRWDSGNTNYADSAKGRFTISRDSAKNLLYLQMTNLKPEDTAVYYCAAKYSRYLPQSTDYDYWGQGTQVTVSS | 88 | 14 | 86 | 42 |  | 0.011 | no binding |  |  | 
5 | SB129 rabbit IgG hcAb (Fc fusion, not shown: a dimerising Fc or GST, also called family 2) VHH: QVQLVESGGGLVQAGDSLRLSCAASGRTPITTTTGWFRQAPGKEREFVAAIRWNSGDAAYADSAKGRFTISRDSAKNTLYLQMNNLEPEDTAVYYCAAKYSRYAPQSTDYDYWGQGTQVTVSS |  |  |  |  | binds | 0.052 |  | 0.05 |  | 
6 | SB27 rabbit IgG hcAb (Fc fusion, not shown: a dimerising Fc or GST, also called family 1) VHH: QVQLVESGGGLVQPGGSLRLSCAASGSIFSFNAMGWYRQAPGKQRELVAAITSGGSTNYADSVKGRFTISRDNAKNTVYLQMNSLKPEDTAVYYCNGIGGSTWFGEDEYDYWGQGTQVTVSS |  |  |  |  | binds | 0.0031 |  |  |  | 
7 | SB24 rabbit IgG hcAb (Fc fusion, not shown: a dimerising Fc or GST, Bivalent VHH-Fc heavy chain antibody; also called l- 14a; family 1) VHH: QVQLVESGGGLVQPGGSLRLSCAASGSIFSFNAMGWYRQAPGKQRELVAAITSGGNTNYADSVKGRFAISRDNAKNTVYLQMSSLKPEDTAVYYCKGIGGSTWFGEDEPDYWGQGTQVTVSS | 40 | 99 | 39 | 53 |  | 0.00099 | no binding |  |  | 
8 | SB130 rabbit IgG hcAb (Fc fusion, not shown: a dimerising Fc or GST, also called family 1) VHH: QVQLVESGGGSVQPGGSLKLSCAASGSISSINAMGWYRQAPGKQRELVAAITSGGYTNYADSVKGRFTISRDNAKNTVYLQMNSLKPEDTAVYYCNAIGGSTWFGEDEYDNWGQGTQVTVSS |  |  |  |  | binds | 0.0015 |  |  |  | 
9 | SB131 rabbit IgG hcAb (Fc fusion, not shown: a dimerising Fc or GST, also called family 1) VHH: QVQLVESGGGLVQPGGSLRLSCAASESIVSFNAMGWYRQAPGKQRDLVAAITSGGRTNYAESVKGRFTISRDDAKNTVYLQMNSLKPEDTAVYYCHAIGGSTWFGEDEPDYWGQGTQVTVSS |  |  |  |  | binds | 0.00084 |  |  |  | 
10 | SB132 rabbit IgG hcAb (Fc fusion, not shown: a dimerising Fc or GST, also called family 1) VHH: QVQLVESGGGLVQPGGSLRLSCAASGSIFNFNAMGWYRQASGKQRELVAAITSGGSTNYADSVKGRFTISRGNAKNTVYLQMNSLKPEDTAVYYCHGIGGSTWFGEEEYDSWGQGTQVTVSS |  |  |  |  | binds | 0.0011 |  |  |  | 
11 | SB134 rabbit IgG hcAb (Fc fusion, not shown: a dimerising Fc or GST, also called l- 5a; family 3) VHH: QVKLQESGGGWVQPGGSLRLSCAASGFTFRTHFMSWVRQAPGQGLEWVSGITSGGRTSYVDSVKGRFTISRDNAANTLYLQMNSLKPEDTAVYFCTKGDSGARGQGTQVTVSS | 58 | 15 |  | 41 |  | 0.012 | no binding |  |  | 
12 | SB135 rabbit IgG hcAb (Fc fusion, not shown: a dimerising Fc or GST, also called l- 15; family 4) VHH: QVKLQESGGGLVQAGGSLRLSCTASEESFNKYGVGWFRQAPGKERAFVVAIRPSGVITSYADSVKGRFTISRDSAKNTAYLQMNSLKPEDTALYYCAANSRNTNYYRPNGYDYWGRGTQVTVSS | 53 | 9 | 46 | 37 |  | 0.03 | no binding |  |  | 
13 | SB136 rabbit IgG hcAb (Fc fusion, not shown: a dimerising Fc or GST, also called s- 12; family 5) VHH: DVQLQASGGGLVQPGGSLRLSCAASGFRFSIYDMSWVRRPPGKGLEWVSSITSPGGTTYADSVKGRFTISRDNDKNTLYLQMNSLKPEDTAIYYCAKAYGGRSVVAQTARGQGTQVTVSS | 0 | -11 | 16 | 75 |  | 0.0012 | no binding |  |  | 
14 | SB39 rabbit IgG hcAb (Fc fusion, not shown: a dimerising Fc or GST, also called l- 11; family 7) VHH: QVQLVESGGGLVQPGGSLRLSCAASGFTLDYFAIGWFRQGPGKERDWVSCISKDGTTYYIDSVKGRFTISRDNAKNTGYLQMSGLKPDDTAVYYCARGAGGCQSDFGARGQGTQVTVSS | 96 | 39 | 98 | 91 |  |  |  |  | binds | 
15 | SB90 rabbit IgG hcAb (Fc fusion, not shown: a dimerising Fc or GST, also called s+ 17; family 8) VHH: QVQLVESGGGLVQAGGSLRLSCAVSGLNNYAIGWLRQAPGKEREGVSCINCFDDFTYYADSVKGRFTVSCDNANHTVNLEMNSLRPEDTAVYYCAAGTCGSWWRYTPTPADGAWGRGTQVTVSS |  |  |  |  |  |  |  |  | binds | binds
16 | SB112 rabbit IgG hcAb (Fc fusion, not shown: a dimerising Fc or GST, also called l- 14c; family 9) VHH: QVQLQESGGGLVQAGGSLRLSCTASGRSFSSNAMGWFRQAPGKEREFVARINWSGSRTFYTDSVKGRFTISRDNAKNTMYLQMNSLKPEDTAVYYCAADPNYGSSITSGYTYWGQGTQVTVSS |  |  |  |  |  |  |  |  | binds | binds
17 | SB32 rabbit IgG hcAb (Fc fusion, not shown: a dimerising Fc or GST, also called l- 14d; family 10) VHH: QVQLVESGGGLVQAGGSLRLSCAVSKRTSTHYAMGWFRQAPGLVREFVGVINWNGGTTYYADSVKGRFFISRDNAKNTMALQMNNLKPEDTAVYYCALKVDGLGLTSNEYQHWGQGTQVTVSS |  |  |  |  |  |  |  |  | binds | binds
18 | SB137 rabbit IgG hcAb (Fc fusion, not shown: a dimerising Fc or GST, also called s- 17; family 6) VHH: QVKLQESGGGLGQAGGSLRLSCSASARTSATYVMGWFRQAPGKEREFVATISRSTSTTYYGDSVKGRFTISRDNAKNAVYLQMNSLKPEDTAVYYCATRAPRYGTASTRLSDYDNWGQGTQVTVSS | 95 | -11 | 93 | 39 |  |  | no binding |  |  | 
